Measurements reported in US20210403583A1 (ELIXIRON IMMUNOTHERAPEUTICS HONG KONG, published 2021).

Key:
[1] = molecular target: T1, cynomolgus CSF1R expressed on 293F cells (cynomolgus monkey, UniProt P07333 20-972 (human entry)); assay: flow cytometry titration on 293F cells overexpressing cynomolgus CSF1R, anti-human IgG-Alexa Fluor 647
T1 construct: also called cynoCSF1R
T1 chain: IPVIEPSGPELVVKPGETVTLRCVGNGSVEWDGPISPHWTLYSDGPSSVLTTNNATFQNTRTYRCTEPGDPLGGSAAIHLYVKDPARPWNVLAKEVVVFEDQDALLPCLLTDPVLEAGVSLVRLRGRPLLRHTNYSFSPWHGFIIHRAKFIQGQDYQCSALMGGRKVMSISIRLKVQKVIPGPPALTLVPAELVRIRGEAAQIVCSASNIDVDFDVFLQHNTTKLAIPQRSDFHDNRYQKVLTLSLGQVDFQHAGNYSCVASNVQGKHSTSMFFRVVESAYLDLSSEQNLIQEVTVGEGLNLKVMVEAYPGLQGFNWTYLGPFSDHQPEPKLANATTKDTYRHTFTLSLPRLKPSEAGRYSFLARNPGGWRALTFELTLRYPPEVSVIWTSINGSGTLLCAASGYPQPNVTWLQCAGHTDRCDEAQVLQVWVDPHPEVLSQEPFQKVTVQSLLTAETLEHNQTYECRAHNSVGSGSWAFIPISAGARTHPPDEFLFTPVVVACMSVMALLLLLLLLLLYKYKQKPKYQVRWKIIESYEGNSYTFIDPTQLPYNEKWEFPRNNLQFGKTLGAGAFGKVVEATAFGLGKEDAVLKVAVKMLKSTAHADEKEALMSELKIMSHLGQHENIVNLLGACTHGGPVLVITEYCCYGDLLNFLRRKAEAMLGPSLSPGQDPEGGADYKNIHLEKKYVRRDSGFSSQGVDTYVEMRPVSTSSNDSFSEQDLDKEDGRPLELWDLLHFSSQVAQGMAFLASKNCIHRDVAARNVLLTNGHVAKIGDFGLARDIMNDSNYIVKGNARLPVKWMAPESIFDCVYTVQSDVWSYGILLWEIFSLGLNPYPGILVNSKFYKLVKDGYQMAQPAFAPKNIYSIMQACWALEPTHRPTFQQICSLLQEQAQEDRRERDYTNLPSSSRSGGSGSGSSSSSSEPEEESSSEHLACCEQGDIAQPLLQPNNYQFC
Description: Materials and methods: The gene segments encoding full-length human CSF1R or cynomolgus CSF1R were obtained using Thermo gene synthesis service and cloned in a mammalian expression vector pCDNA3.4. […] After washing with FACS buffer (2%FBS in PBS), the cells were stained with anti-human IgG-Alexa Fluor 647 and analyzed by Attune N×T Flow Cytometer (Thermo Scientific).

[2] = molecular target: T2, recombinant human CSF1R-Fc fusion protein (human, UniProt P07333 20-512); assay: ELISA, coated human CSF1R-Fc
T2 construct: probably the same protein; also called CSF1R-Fc (dimer); not shown: Fc part
Experimental: Materials and methods: Recombinant human CSF1R-Fc, or mouse CSF1R-Fc (Sino Biological) were immobilized on 96 well microtiter plate at a concentration of 1 μg/mL in Coating Solution (SeraCare) overnight at 4° C. The wells were washed with wash solution (0.05% Tween20 in imidazole-buffered saline) and blocked with 1% BSA. Serial dilutions of the anti-CSF1R/IL-10 fusion proteins were added to wells. After incubation at 3TC for 1 h, the wells were washed with wash solution. To detect chimeric Ab/IL10 fusions, peroxidase-conjugated goat anti-human kappa light chain antibody (Bethyl) was applied to each well at 3TC for 1 h incubation. To detect AB98 or AB98/1110 fusions, peroxidase-conjugated Goat anti-mouse IgG Fab antibody (Jackson immunoresearch) was applied to each well at 3TC for 1 h incubation. After washing, the wells were developed with TMB substrate for 5-10 min at RT and then stopped with 1 N HCl. Thereafter absorbance was measured at 450 nm and 650 nm.

[3] = molecular target: human CSF1R expressed on cells (293F/huCSF1R stable cells; AML5 cells; human monocytes and macrophages) (human, UniProt P07333 20-972); assay: cell-based or functional assay
[4] = molecular target: T2, recombinant human CSF1R-Fc fusion …; assay: competition ELISA, coated human CSF1R-Fc, competitor biotinylated human CSF1-His 2.5 ug/mL
Experimental: (§1) Materials and methods: Recombinant human CSF1R-Fc or mouse CSF1R-Fc (Sino Biological) fusion protein was immobilized on 96 well microtiter plate at a concentration of 1 μg/mL in Coating Solution (SeraCare) overnight at 4° C. The wells were washed with wash solution and blocked with 1% BSA at RT. Serial dilutions of Ab/IL-10 fusion proteins were added to wells. Then 2.5 ug/mL biotinylated human CSF1-His (Biolegend) or mouse CSF1-His (Sino Biological) was added and incubated for 1 h at 37° C. After washing, Streptavidin-HRP (Jackson ImmunoResearch) was applied to wells at RT for 1 h incubation. After washing, the wells were developed with TMB substrate for 5-10 min at RT and the stopped with 1 N HCl. Thereafter absorbance was measured at 450 nm and 650 nm. The IC₅₀ values were calculated through GraphPad Prism7.

[5] = molecular target: T3, recombinant human IL-10Ra fusion protein (R&D Systems) (human, UniProt Q13651 22-235); assay: ELISA, coated human IL-10Ra fusion protein
T3 sequence (looked up): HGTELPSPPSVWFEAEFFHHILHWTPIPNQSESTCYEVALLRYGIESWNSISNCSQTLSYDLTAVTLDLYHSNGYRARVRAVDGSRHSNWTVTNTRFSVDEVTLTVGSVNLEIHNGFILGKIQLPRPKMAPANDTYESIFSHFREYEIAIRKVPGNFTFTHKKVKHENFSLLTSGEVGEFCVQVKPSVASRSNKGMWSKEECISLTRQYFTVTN
Experimental: Materials and methods: Recombinant human IL-10Ra fusion protein (R&D Systems) were immobilized on 96 well microtiter plate at a concentration of 1 μg/ml in Coating Solution (SeraCare) overnight at 4° C. The wells were washed with wash solution (0.05% Tween20 in imidazole-buffered saline) and blocked with 1% BSA. Serial dilutions of Ab/IL-10 fusion proteins were added to wells. After incubation at 37° C. for lhr, the wells were washed with wash solution. Peroxidase-conjugated goat anti-human kappa light chain antibody (Bethyl) was applied to each well at 37° C. for 1 hr incubation. After washing, the wells were developed with TMB substrate for 5-10 min at RT and then stopped with 1 N HCl. Thereafter absorbance was measured at 450 nm and 650 nm. The EC50 value was calculated through GraphPad Prism7.

[6] = molecular target: T4, recombinant human CSF1R-His (Biolegend) (human, UniProt P07333 20-512, limits assumed); assay: ELISA, coated human CSF1R-His (monomer)
T4 construct: Bought protein; also called CSF1R-His (monomer); hu-CSF1R; not shown: His tag
Experimental: (§2) Materials and methods: Recombinant human CSF1R-His (Biolegend), or CSF1R-Fc fusion protein were immobilized on 96 well microtiter plate at a concentration of 1 μg/mL in Coating Solution (SeraCare) overnight at 4° C. The wells were washed with wash solution (0.05% Tween20 in imidazole-buffered saline) and blocked with 1% BSA. Hybridoma culture supernatants or serial dilutions of antibodies were added to wells. After incubation at 37° C. for 1 h, the wells were washed with wash solution. Peroxidase-conjugated goat anti-human kappa light chain antibody (Bethyl) was applied to each well at 37° C. for 1 h incubation. After washing, the wells were developed with TMB substrate for 5-10 min at RT and then stopped with 1 N HCl. Thereafter absorbance was measured at 450 nm and 650 nm. The EC₅₀ values were calculated through GraphPad Prism7.

[7] = molecular target: T2, recombinant human CSF1R-Fc fusion …; assay: competition ELISA, coated human CSF1R-Fc, competitor biotinylated CSF1-His 2.5 ug/mL
Experimental: as §1, with “CSF1R-Fc” for “CSF1R-Fc or mouse CSF1R-Fc (Sino Biological)”, “the antibodies” for “Ab/IL-10 fusion proteins”, “biotinylated” for “biotinylated human”, “(Biolegend)” for “(Biolegend) or mouse CSF1-His (Sino Biological)”

[8] = molecular target: T2, recombinant human CSF1R-Fc fusion …; assay: ELISA, coated human CSF1R-Fc (dimer)
Experimental: as §2

T2 sequence (P07333 20-512 limits assumed): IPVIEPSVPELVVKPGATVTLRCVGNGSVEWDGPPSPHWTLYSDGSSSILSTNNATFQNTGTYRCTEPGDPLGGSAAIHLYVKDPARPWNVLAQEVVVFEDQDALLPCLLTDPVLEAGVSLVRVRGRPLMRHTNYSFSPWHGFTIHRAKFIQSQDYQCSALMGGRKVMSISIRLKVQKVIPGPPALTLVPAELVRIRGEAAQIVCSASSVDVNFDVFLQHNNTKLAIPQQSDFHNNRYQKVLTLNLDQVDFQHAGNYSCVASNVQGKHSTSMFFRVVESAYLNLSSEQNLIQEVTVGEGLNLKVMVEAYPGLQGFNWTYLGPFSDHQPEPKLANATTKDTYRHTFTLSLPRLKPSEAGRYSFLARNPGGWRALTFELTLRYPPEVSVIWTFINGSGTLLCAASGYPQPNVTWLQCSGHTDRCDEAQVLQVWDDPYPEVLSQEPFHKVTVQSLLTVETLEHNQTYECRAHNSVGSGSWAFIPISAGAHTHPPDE
T4 sequence (P07333 20-512 limits assumed): as above

B1: chimeric anti-CSF1R/IL10 fusion protein 6D4/IL10 (antibody, human IgG1, kappa)
heavy: not shown
light: DIQMNQSPSSLSASLGDTITITCHASQNINVWLSWYQQKPGNIPKLLIYKASNLHTGVPSRFSGSGSGTGFTLTISSLQPEDIATYYCQQGQSYPYTFGGGTKLEIKRTVAAPSVFIFPPSDEQLKSGTASVVCLLNNFYPREAKVQWKVDNALQSGNSQESVTEQDSKDSTYSLSSTLTLSKADYEKHKVYACEVTHQGLSSPVTKSFNRGEC
notes: Antibody-cytokine fusion: human IL10 fused by a linker to the C-terminus of the heavy chain
Does B1 bind [1]?
Result: binds

And the EC50 [2]?
Its EC50 is 0.479 nM.

What about the “IC50 (M), inhibition of AML5 cell proliferation (CSF1-dependent)” value [3] of the same binder?
The value was 4.92e-09 M.

What about the IC50 [4] of the same binder?
The IC50 was 1.4 nM.

What about the EC50 [5] of the same binder?
Its EC50 is 2.76 nM.

B2: hy6M6 (antibody, V domains shown)
VH: DVQLQQSGTVLARPGASVKMSCKASGYTFTSYWIHWVKQRPGQGLEWIGAIYPGNRDTNYNQKFKGKAKLTTVTSASTAYMELSSLTNEDSAVYYCTGAFAGYYDWYFDVWGAGTTVTVSS
VL: DIVLTQSPASLAVSLGQRATISCKASQGVDYAGDSYMNWYQQKPGQPPKLLIYVASDLDSGIPARFSGSGSGTNFTLNIHPVEEEDAATYYCQQSYEDPRTFGGGTTLEIQ
notes: Mouse hybridoma antibody; also called anti-CSF1R antibody purified from hybridoma supernatant hy6M6
What does the source list for B2?
EC50 [6]: 0.112 nM; IC50 [7]: 1.04 nM; EC50 [8]: 0.0653 nM

B3: chimeric anti-CSF1R/IL10 fusion protein 6D4/(IL10)2 (antibody, human IgG1, kappa)
heavy: not shown
light: DIQMNQSPSSLSASLGDTITITCHASQNINVWLSWYQQKPGNIPKLLIYKASNLHTGVPSRFSGSGSGTGFTLTISSLQPEDIATYYCQQGQSYPYTFGGGTKLEIKRTVAAPSVFIFPPSDEQLKSGTASVVCLLNNFYPREAKVQWKVDNALQSGNSQESVTEQDSKDSTYSLSSTLTLSKADYEKHKVYACEVTHQGLSSPVTKSFNRGEC
notes: Antibody-cytokine fusion: two human IL10 in tandem fused by linkers to the C-terminus of the heavy chain
What does the source list for B3?
EC50 [2]: 0.393 nM; EC50 [5]: 6.08 nM
